Reference: patent publication US20170355774A1 (Regeneron, published 2017)

T1: human GITR (amino acids M1-V241, NCBI Accession #NP_004186.1) expressed on cells (human, UniProt Q9Y5U5 26-241)
T1 sequence: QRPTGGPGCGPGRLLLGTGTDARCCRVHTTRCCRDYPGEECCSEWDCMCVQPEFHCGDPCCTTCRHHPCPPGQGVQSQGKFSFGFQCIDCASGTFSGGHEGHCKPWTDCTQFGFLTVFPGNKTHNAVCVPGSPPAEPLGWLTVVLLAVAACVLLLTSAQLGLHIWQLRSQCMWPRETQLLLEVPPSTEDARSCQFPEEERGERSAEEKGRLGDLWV

T2: hGITR.mFc (human)
T2 construct: soluble dimeric construct with mouse Fc; also called dimeric human GITR
T2 chain: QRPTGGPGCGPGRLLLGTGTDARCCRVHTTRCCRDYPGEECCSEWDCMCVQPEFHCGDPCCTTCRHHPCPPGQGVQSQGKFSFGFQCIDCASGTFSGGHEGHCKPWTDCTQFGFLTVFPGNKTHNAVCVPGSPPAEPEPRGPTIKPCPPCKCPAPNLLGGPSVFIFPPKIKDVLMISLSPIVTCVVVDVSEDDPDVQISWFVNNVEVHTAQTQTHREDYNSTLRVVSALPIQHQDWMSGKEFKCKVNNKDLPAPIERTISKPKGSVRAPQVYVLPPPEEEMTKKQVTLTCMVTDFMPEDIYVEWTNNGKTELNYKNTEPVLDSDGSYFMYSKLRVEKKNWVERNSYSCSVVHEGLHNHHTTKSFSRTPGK

T3: hGITR.mmh (human)
T3 construct: soluble monomeric construct; also called human (h) GITR.mmh; monomeric human GITR
T3 chain: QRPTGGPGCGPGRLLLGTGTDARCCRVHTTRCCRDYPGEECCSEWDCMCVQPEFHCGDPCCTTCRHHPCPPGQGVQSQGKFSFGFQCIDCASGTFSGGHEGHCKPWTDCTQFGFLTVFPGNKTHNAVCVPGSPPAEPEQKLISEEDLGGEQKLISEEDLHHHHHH

T4: mfGITR.mmh (Macaca fasicularis)
T4 construct: soluble monomeric construct; also called Macaca fasicularis (mf) GITR.mmh; cynomolgus GITR protein
T4 chain: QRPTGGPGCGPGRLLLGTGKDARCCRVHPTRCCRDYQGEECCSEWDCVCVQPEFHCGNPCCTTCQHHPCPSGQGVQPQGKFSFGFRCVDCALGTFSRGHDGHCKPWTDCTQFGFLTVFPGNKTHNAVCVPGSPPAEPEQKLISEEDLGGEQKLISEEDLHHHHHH


Columns and labels:
[1] = biological target: T1, human GITR (amino acids M1-V241, NCBI …); experiment: cell-based or functional assay
[2] = biological target: T1, human GITR (amino acids M1-V241, NCBI …); experiment: cell-based or functional assay; remark: listed apart in the source
[3] = biological target: T1, human GITR (amino acids M1-V241, NCBI …); experiment: ECL cell binding, hGITR/HEK293-D9
Procedure, shortened: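 Cells blocked with 2% BSA, then antibody dilutions from 1.7 pM to 100 nM added 1 h at RT. Bound antibody detected with SULFO-TAG anti-human kappa antibody, electrochemiluminescence read, RLU fitted by four-parameter logistic; signal at 100 nM on hGITR cells versus parental cells also recorded.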

hGITR.mFc = biological target: T2, hGITR.mFc; experiment: SPR 37C, mAb capture
hGITR.mmh = biological target: T3, hGITR.mmh; experiment: SPR 37C, mAb capture
mfGITR.mmh = biological target: T4, mfGITR.mmh; experiment: SPR 37C, mAb capture
[4] = biological target: T1, human GITR (amino acids M1-V241, NCBI …); experiment: cell-based or functional assay; remark: listed apart in the source
[5] = biological target: T1, human GITR (amino acids M1-V241, NCBI …); experiment: cell-based or functional assay; remark: listed apart in the source

Row | Binder | fold activation, T-cell proliferation, 22 nM, non-anchored, donor 1 [1] | fold activation, T-cell proliferation, 22 nM, non-anchored, donor 2 [1] | fold activation, T-cell proliferation, 22 nM, non-anchored, donor 3 [1] | fold activation, T-cell proliferation, 22 nM, non-anchored, donor 4 [1] | fold activation, T-cell proliferation, 22 nM, non-anchored, mean [1] | fold activation, T-cell proliferation, 33 nM, FcgR anchored, donor 1 [2] | fold activation, T-cell proliferation, 33 nM, FcgR anchored, donor 2 [2] | fold activation, T-cell proliferation, 33 nM, FcgR anchored, donor 3 [2] | fold activation, T-cell proliferation, 33 nM, FcgR anchored, donor 4 [2] | fold activation, T-cell proliferation, 33 nM, FcgR anchored, donor 5 [2] | fold activation, T-cell proliferation, 33 nM, FcgR anchored, mean [2] | Average Signal (RLU) at 100 nM [3] | EC50 [3] | Kd (hGITR.mFc) | koff (hGITR.mFc) | kon (hGITR.mFc) | t½ (hGITR.mFc) | Kd (hGITR.mmh) | koff (hGITR.mmh) | kon (hGITR.mmh) | further results
1 | H4H14532P2 (antibody, human IgG4, V domains shown, human IgG4 (H4H)) VH: QVQLVESGGGVVQPGRSLRLSCSASGFTLSNFVMHWVRQAPGKGLEWVAVILYDGSNKYYADSVKGRFTISRDNSNNRLYLQMNSLRAEDTALYYCARGESLGSPIYYYYGLDVWGQGTTVTVSS VL: not shown | 0.7 fold | 0.8 fold | 1 fold | 1.1 fold | 0.9 fold | 0.8 fold | 0.9 fold | 1 fold | 1.7 fold | 2.1 fold | 1.3 fold | 5740 RLU | 0.43 nM | 0.373 nM | 0.000269 s⁻¹ | 720000 M⁻¹ s⁻¹ | 42.9 min | 18.5 nM | 0.00645 s⁻¹ | 348000 M⁻¹ s⁻¹ | t½ (hGITR.mmh): 1.8 min; Kd (mfGITR.mmh): 24.9 nM; koff (mfGITR.mmh): 0.00648 s⁻¹; kon (mfGITR.mmh): 260000 M⁻¹ s⁻¹; t½ (mfGITR.mmh): 1.8 min; % Activation, NF-kB-Luc, non-anchored [4]: 30%; % Blocking, NF-kB-Luc, non-anchored [4]: 90%; EC50, hGITR activation, NF-kB-Luc, non-anchored [4]: 1.2 nM; IC50, blocking of hGITRL stimulation, NF-kB-Luc, non-anchored [4]: 1 nM; fold activation, T-cell proliferation, plate-bound Ab 10.6 nM, donor 1 [5]: 2 fold; fold activation, T-cell proliferation, plate-bound Ab 10.6 nM, donor 2 [5]: 6 fold; fold activation, T-cell proliferation, plate-bound Ab 10.6 nM, donor 3 [5]: 6 fold; fold activation, T-cell proliferation, plate-bound Ab 10.6 nM, donor 4 [5]: 12 fold; fold activation, T-cell proliferation, plate-bound Ab 10.6 nM, donor 5 [5]: 6 fold; fold activation, T-cell proliferation, plate-bound Ab 10.6 nM, donor 6 [5]: 19 fold; fold activation, T-cell proliferation, plate-bound Ab 10.6 nM, donor 7 [5]: 7 fold; fold activation, T-cell proliferation, plate-bound Ab 10.6 nM, donor 8 [5]: 2 fold; fold activation, T-cell proliferation, plate-bound Ab 10.6 nM, mean [5]: 8 fold
2 | H4H14470P (antibody, human IgG4, V domains shown, human IgG4 (H4H)) VH: QVQLVESGGGVVQPGRSLRLSCAASGFTVRNYGMHWVRQAPGKGLEWVAVIWYDGSNKYYADSVKGRFTISRDNSKNTLFLQMNSLRAEDTAVYYCARGGELVRGDYYYGMDVWGQGTTVTVSS VL: DIQMTQSPSSLSASVGDRVTITCRASQGIRNDLGWYQQKPGKAPKRLIYGASSLQSGVPSRFSGSGSGTEFTLTISSLQPEDFATYYCLQHNSYPYTFGQGTKLEIK | 0.7 fold | 0.9 fold | 1 fold | 1.7 fold | 1.1 fold | 1.8 fold | 1 fold | 1.4 fold | 1.5 fold | 2 fold | 1.5 fold | 8390 RLU | 1.4 nM | 1.15 nM | 0.00104 s⁻¹ | 904000 M⁻¹ s⁻¹ | 11.1 min | 64.7 nM | 0.0143 s⁻¹ | 221000 M⁻¹ s⁻¹ | t½ (hGITR.mmh): 0.8 min; binding result (mfGITR.mmh): no binding; % Activation, NF-kB-Luc, non-anchored [4]: 20%; % Blocking, NF-kB-Luc, non-anchored [4]: 80%; EC50, hGITR activation, NF-kB-Luc, non-anchored [4]: 1.2 nM; IC50, blocking of hGITRL stimulation, NF-kB-Luc, non-anchored [4]: 0.9 nM; fold activation, T-cell proliferation, plate-bound Ab 10.6 nM, donor 1 [5]: 0 fold; fold activation, T-cell proliferation, plate-bound Ab 10.6 nM, donor 2 [5]: 3 fold; fold activation, T-cell proliferation, plate-bound Ab 10.6 nM, donor 3 [5]: 3 fold; fold activation, T-cell proliferation, plate-bound Ab 10.6 nM, donor 4 [5]: 4 fold; fold activation, T-cell proliferation, plate-bound Ab 10.6 nM, donor 5 [5]: 3 fold; fold activation, T-cell proliferation, plate-bound Ab 10.6 nM, donor 6 [5]: 6 fold; fold activation, T-cell proliferation, plate-bound Ab 10.6 nM, donor 7 [5]: 4 fold; fold activation, T-cell proliferation, plate-bound Ab 10.6 nM, donor 8 [5]: 1 fold; fold activation, T-cell proliferation, plate-bound Ab 10.6 nM, mean [5]: 3 fold
3 | H4H14528P (antibody, human IgG4, V domains shown, human IgG4 (H4H)) VH: QVQLVESGGGVVQPGRSLRISCAASGFTFNNYGFHWVRQAPGRGLEWVAVIWYSGSNKYYGDSVKGRFTISRDNSKNILYLQMNSLRAEDTAIYYCARFPFSSSWLLDYWGQGTLVTVSS VL: DIQLTQSPSFLSASVGDRVTFTCWASQGISDYLAWYQQKPGKAPKLLIYAASALQSGVPSRFSGSGSGTEFTLTVSSLQPEDFATYYCQQLNSYPFTFGPGTKVDIK | 0.6 fold | 0.8 fold | 0.9 fold | 1 fold | 0.8 fold | 0.9 fold | 1.5 fold | 1.1 fold | 1.9 fold | 1.7 fold | 1.4 fold | 7310 RLU | 0.45 nM | 1.12 nM | 0.00177 s⁻¹ | 1.58e+06 M⁻¹ s⁻¹ | 6.5 min | 51.3 nM | 0.00523 s⁻¹ | 102000 M⁻¹ s⁻¹ | t½ (hGITR.mmh): 2.2 min; binding result (mfGITR.mmh): no binding; % Activation, NF-kB-Luc, non-anchored [4]: 30%; % Blocking, NF-kB-Luc, non-anchored [4]: 90%; EC50, hGITR activation, NF-kB-Luc, non-anchored [4]: 1.1 nM; IC50, blocking of hGITRL stimulation, NF-kB-Luc, non-anchored [4]: 3.4 nM; fold activation, T-cell proliferation, plate-bound Ab 10.6 nM, donor 1 [5]: 2 fold; fold activation, T-cell proliferation, plate-bound Ab 10.6 nM, donor 2 [5]: 8 fold; fold activation, T-cell proliferation, plate-bound Ab 10.6 nM, donor 3 [5]: 8 fold; fold activation, T-cell proliferation, plate-bound Ab 10.6 nM, donor 4 [5]: 4 fold; fold activation, T-cell proliferation, plate-bound Ab 10.6 nM, donor 5 [5]: 8 fold; fold activation, T-cell proliferation, plate-bound Ab 10.6 nM, donor 6 [5]: 31 fold; fold activation, T-cell proliferation, plate-bound Ab 10.6 nM, donor 7 [5]: 5 fold; fold activation, T-cell proliferation, plate-bound Ab 10.6 nM, donor 8 [5]: 4 fold; fold activation, T-cell proliferation, plate-bound Ab 10.6 nM, mean [5]: 8 fold
4 | H4H14539P2 (antibody, human IgG4, V domains shown, human IgG4 (H4H)) VH: QVQLVESGGGVVQPGRSLRLSCAASGFSFSSYGMHWVRQAPGKGLEWMAVIWYAGSNKFYADSVKGRFTISRDNSKNTLYLQMNSLTAEDTAVYYCARGSSLAAPDLYKYGMDVWGQGTTVTVSS VL: not shown | 0.5 fold | 0.8 fold | 1.1 fold | 0.8 fold | 0.8 fold | 0.9 fold | 0.7 fold | 1.1 fold | 1.5 fold | 1.5 fold | 1.1 fold | 4910 RLU | 0.3 nM | 0.554 nM | 0.000472 s⁻¹ | 853000 M⁻¹ s⁻¹ | 24.5 min | 82.5 nM | 0.0177 s⁻¹ | 214000 M⁻¹ s⁻¹ | t½ (hGITR.mmh): 0.7 min; Kd (mfGITR.mmh): 22.8 nM; koff (mfGITR.mmh): 0.00165 s⁻¹; kon (mfGITR.mmh): 72300 M⁻¹ s⁻¹; t½ (mfGITR.mmh): 7 min; % Activation, NF-kB-Luc, non-anchored [4]: 20%; % Blocking, NF-kB-Luc, non-anchored [4]: 30%; EC50, hGITR activation, NF-kB-Luc, non-anchored [4]: 1.3 nM; IC50, blocking of hGITRL stimulation, NF-kB-Luc, non-anchored [4]: 1.2 nM; fold activation, T-cell proliferation, plate-bound Ab 10.6 nM, donor 1 [5]: 2 fold; fold activation, T-cell proliferation, plate-bound Ab 10.6 nM, donor 2 [5]: 12 fold; fold activation, T-cell proliferation, plate-bound Ab 10.6 nM, donor 3 [5]: 12 fold; fold activation, T-cell proliferation, plate-bound Ab 10.6 nM, donor 4 [5]: 13 fold; fold activation, T-cell proliferation, plate-bound Ab 10.6 nM, donor 5 [5]: 12 fold; fold activation, T-cell proliferation, plate-bound Ab 10.6 nM, donor 6 [5]: 39 fold; fold activation, T-cell proliferation, plate-bound Ab 10.6 nM, donor 7 [5]: 11 fold; fold activation, T-cell proliferation, plate-bound Ab 10.6 nM, donor 8 [5]: 6 fold; fold activation, T-cell proliferation, plate-bound Ab 10.6 nM, mean [5]: 13 fold
